From US20210380648, “DNA BINDING PROTEINS AND USES THEREOF” (Klogenix LLC, published 2021)

B1: ZFP52 target (dsDNA)
DNA 1: CGACGTCCGCGGGCGACGCCTGCCGCACCT
DNA 2: AGGTGCGGCAGGCGTCGCCCGCGGACGTCG
B2: ZFP3_Egr1_site3 target (dsDNA)
DNA 1: CTGGCACTGGGGGTGGGGGCA
DNA 2: TGCCCCCACCCCCAGTGCCAG

Assays:
[1] = biological target: ZFP52 (VP64); assay: cell_activity; Klotho ELISA in HK-2; settings: tags: NLS, VP64, HA
Description: (§1) ELISA components were purchased from IBL and assays were performed according to the manufacturers instructions.
(§2) Klotho is largely expressed in the brain and kidney, and so further investigations were made using cell lines derived from those organs. The ZFPs were transfected into HK-2 cells and Klotho protein levels were measured.

[2] = biological target: ZFP52_VPR; assay: cell_activity; Klotho ELISA in HK-2; settings: tags: NLS, VP64-p65-Rta, HA, V5, His
Description: as §1, §2

[3] = biological target: ZFP3_Egr1_site3_antisense (VP64); assay: cell_activity; Klotho protein ELISA in HK-2; also active in HEK293 4 kb promoter reporter; settings: tags: NLS, VP64, HA
Description: as §1, §2

[4] = biological target: ZFP3_Egr1_site3_antisense_VPR; assay: cell_activity; Klotho ELISA in HK-2; settings: tags: NLS, VP64-p65-Rta, HA, V5, His
Description: as §1, §2

ZFP3_Egr1_site3_antisense_VPR, sequence (chain, as listed by the source): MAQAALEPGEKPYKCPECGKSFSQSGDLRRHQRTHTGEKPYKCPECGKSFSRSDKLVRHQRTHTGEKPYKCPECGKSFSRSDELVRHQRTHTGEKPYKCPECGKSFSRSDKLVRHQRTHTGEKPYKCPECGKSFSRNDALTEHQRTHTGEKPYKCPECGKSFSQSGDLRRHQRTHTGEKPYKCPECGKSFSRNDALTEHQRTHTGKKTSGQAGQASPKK
ZFP52_VPR, sequence (chain, as listed by the source): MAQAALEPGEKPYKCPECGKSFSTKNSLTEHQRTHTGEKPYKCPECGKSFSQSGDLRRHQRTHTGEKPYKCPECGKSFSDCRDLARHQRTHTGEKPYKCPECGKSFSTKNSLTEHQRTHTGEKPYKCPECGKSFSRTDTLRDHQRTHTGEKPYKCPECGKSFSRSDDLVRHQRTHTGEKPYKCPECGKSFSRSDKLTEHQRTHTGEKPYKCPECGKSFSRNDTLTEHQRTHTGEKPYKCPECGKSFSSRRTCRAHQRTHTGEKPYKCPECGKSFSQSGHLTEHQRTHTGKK

Row | Binder | activity [1] [fold] | activity [2] [fold] | activity [3] [fold] | activity [4] [fold]
1 | B1 | ~2 | ~5 | – | –
2 | B2 | – | – | ~3 | ~3
